Patent US20060204957A1, “Mta1s, a steriod hormone receptor corepressor” (priority 2002, published 2006)

How the values were obtained:
ER [1] = test: ERE promoter-reporter assay, estradiol-stimulated, MCF-7 cells; format: cell-based, human; settings: transient expression in MCF-7 cells
Description: (§1) Transfection was performed using a Fugene-6 kit (Roche Biochemical, New Jersey) as per the manufacturer's instructions. Cells were transiently cotransfected with a reporter construct and (β-galactosidase, and assayed for luciferase activity as described.
Since MTA1 is a corepressor of ER (Mazumdar, et al., 2001, incorporated herein by reference), the ability of MTA1 cDNAs to repress the transactivating function of ER were investigated.

[2] = tested on: glucocortocoid responsive element (GRE) transcription; test: GRE reporter assay, dexamethasone-stimulated, MCF-7 cells; format: cell-based, human; settings: transient expression
Description: (§2) FIGS. 6A-6B. Typical transcriptional repression by MTA1s. FIG. 6A illustrates an example of repression of dexamethasone (10^−9 M)-mediated stimulation of GRE-CAT activity in MCF-7 cells by MTA1s. FIG. 6B illustrates the exemplary repression of progesterone (10^−9 M)-mediated stimulation of PRE-luciferase activity in MCF-7 cells by MTA1s. Cells were cotransfected with β-galactosidase to assess transfection efficiency, and normalized results are presented here.
as §1

[3] = tested on: progesterone responsive element (PRE) transcription; test: PRE reporter assay, progesterone-stimulated, MCF-7 cells; format: cell-based, human; settings: transient expression
Description: as §2, §1

ER [4] = test: GST pull-down assay; format: binding; settings: in vitro translated protein, GST fusion
Description: Incubating equal amounts of GST […] GST-AF2 or GST-AF 1 proteins immobilized to glutathione-sepharose beads with in vitro translated ^35S-labelled MTA1s, protein as described.
Since MTA1s lacked the nuclear signal sequence, the subcellular localization and function of MTA1s was examined. […] The role of MTA1s, in breast cancer cells, was investigated by generating stable clones of ZR-75R cells expressing T7-MTA1s (FIG. 3B). Subcellular fractionation of the ZR-75R cells expressing MTA1s confirmed that T7-MTA1s was in the cytoplasm. To assess the purity of the fractions, immunoblotting with antibodies against the nuclear corepressor PELP1 (Vadlamudi, et al., 2000) and cytosolic paxillin (FIG. 3C) were used. To understand the impact of MTA1s on the status of ER, immunostaining with an anti-ER mAb were used on MCF-7 cells that were transfected with the T7-MTA1s. The expression of T7-MTA1s was accompanied by a significant reduction in the nuclear ER immunoreactivity (FIG. 3D), raising the possibility that MTA1s regulates ER. To confirm the interaction between the MTA1s and endogenous ER, immunoprecipitation of T7-MTA1s with an anti-T7 mAb was used. […] To investigate whether the association between MTA1s and ER was direct or mediated by other proteins, the ability of in vitro-translated ER protein to bind with GST-MTA1s was investigated. […]
Target sequence in this assay (P03372 311-595 limits assumed): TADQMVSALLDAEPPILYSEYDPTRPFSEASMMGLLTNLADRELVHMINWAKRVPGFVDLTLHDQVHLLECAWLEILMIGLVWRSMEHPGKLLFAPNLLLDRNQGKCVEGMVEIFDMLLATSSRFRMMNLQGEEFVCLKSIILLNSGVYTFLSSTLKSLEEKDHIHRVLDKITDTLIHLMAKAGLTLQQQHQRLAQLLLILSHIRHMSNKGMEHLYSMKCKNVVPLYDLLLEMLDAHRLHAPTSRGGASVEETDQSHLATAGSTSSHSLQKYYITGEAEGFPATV

[5] = tested on: pS2, c-Myc and cathepsin-D; test: Expression of ER-target genes in ZR-75R cells; format: cell-based, human; settings: ZR-75R/MTA1s cells
Description: FIGS. 5A-5F. MTA1s may impair genomic responses and upregulates the MAP kinase pathway in ZR75R breast cancer cells. […] FIG. 5B illustrates an example of the status of E2 (10^−9 M for 16 h)-induced stimulation of pS2 mRNA. […] Treatment, 5 min. with E2 (10^−9 M) or ICI 182780 (10^−8 M) or both. […] Treatment, 5 min with E2 (10^−9 M) or ICI 182780 (10^−8 M) or both. Relative levels of p42/44Phos are shown underneath.

ZR-75R or MCF-7 cells = test: Soft-agar anchorage-independent growth assay; format: cell-based, human; settings: stable expression in ZR-75R or MCF-7 cells
Description: (§3) FIGS. 11A-11E. MTA1s may stimulate aggressive phenotypes in breast cancer cells. FIG. 11A illustrates an example of MTA1s overexpression inhibiting PRE-driven but not RARE-driven transcription. FIG. […] illustrates the Growth-rate of ZR/pcDNA or ZR/MTA1s cells in monolayer culture in the presence of E2 alone or with ICI 182780 (10^−9 M for 4 days). FIG. 11C show an exemplary effect of MTA1s expression on anchorage independent growth of ZR/pcDNA and ZR/MTA1s cells grown in 10% serum in the presence or absence of ICI 182780 (10^−9 M) or 4HT (10^−8 M) for 14 days. […] FIG. 11E illustrates that MTA1s may induce tumorigenesis of breast cancer cells. 5×10^6 cells were subcutaneously inoculated in the athymic nude mice (n=10), and tumor volumes at day 21 were recorded.
(§4) Soft agar colony growth assays were performed as described in Mazumdar et al., 2001, herein incorporated by reference. For xenografts studies, 5×10^6 cells were implanted subcutaneously into mammary fat-pad of nude mice and allowed to grow for 21 days and tumor size was measured, as described in Mandal et al., 2001, herein incorporated by reference.

breast cancer cells = test: Tumorigenesis (xenograft) assay in nude mice; format: in vivo; settings: MTA1s expressing cells implanted subcutaneously, 21 days
Description: as §3, §4

ERα = molecular target: T1, ERα (Homo sapiens, UniProt P03372); test: Confocal localization of ERα in estradiol-stimulated MCF-7 cells; format: cell-based; settings: estradiol stimulated MCF-7 cells expressing the construct
T1 construct: endogenous in cells; host or cells: MCF-7 cells transfected with T7-MTA1s or MTA1s-del
T1 sequence (P03372 whole entry): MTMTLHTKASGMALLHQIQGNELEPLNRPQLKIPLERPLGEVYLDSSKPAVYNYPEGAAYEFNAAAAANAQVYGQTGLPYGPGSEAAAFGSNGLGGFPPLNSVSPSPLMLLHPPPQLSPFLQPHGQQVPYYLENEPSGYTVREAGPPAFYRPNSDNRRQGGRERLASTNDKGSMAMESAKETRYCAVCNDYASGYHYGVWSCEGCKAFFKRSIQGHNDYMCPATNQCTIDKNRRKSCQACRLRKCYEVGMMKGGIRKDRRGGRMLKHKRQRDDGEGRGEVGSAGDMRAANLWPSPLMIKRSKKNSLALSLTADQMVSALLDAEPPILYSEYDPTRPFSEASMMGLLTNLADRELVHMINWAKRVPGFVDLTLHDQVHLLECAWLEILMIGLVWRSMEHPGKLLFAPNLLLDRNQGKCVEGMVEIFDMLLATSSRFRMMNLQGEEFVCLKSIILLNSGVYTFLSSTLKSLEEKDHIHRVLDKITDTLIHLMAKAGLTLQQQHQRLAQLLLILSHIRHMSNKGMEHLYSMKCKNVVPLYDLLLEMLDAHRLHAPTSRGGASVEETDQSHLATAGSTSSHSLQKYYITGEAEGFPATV
Description: The cellular localization of T7-MTA1s, and ER was determined using indirect immunofluorescence as described in Mazumdar et al., 2001, herein incorporated by reference. Cells were treated with or without anti-T7 mAb or ER Ab followed by 546-Alexa-labeled goat anti-mouse Ab or 488-Alexa.
Expression of MTA1s-del but not wild type MTA1s was accompanied by the presence of ERα in the nucleus in more than 90% of the cell expressing MTA1s-del. Together, these findings indicated a pivotal role of LRILL motif in the cytoplasmic sequestration of ERα.

B1: MTA1s: novel 430 amino acid protein from an alternatively spliced MTA1 transcript, with unique 33 amino acid C-terminus (SEQ ID NO:2) (protein, listed as Homo sapiens)
chain: MAANMYRVGDYVYFENSSSNPYLIRRIEELNKTANGNVEAKVVCFYRRRDISSTLIALADKHATLSVCYKAGPGADNGEEGEIEEEMENPEMVDLPEKLKHQLRHRELFLSRQLESLPATHIRGKCSVTLLNETESLKSYLEREDFFFYSLVYDPQQKTLLADKGEIRVGNRYQADITDLLKEGEEDGRDQSRLETQVWEAHNPLTDKQIDQFLVVARSVGTFARALDCSSSVRQPSLHMSAAAASRDITLFHAMDTLHKNIYDISKAISALVPQGGPVLCRDEMEEWSASEANLFEEALEKYGKDFTDIQQDFLPWKSLTSIIEYYYMWKTTDRYVQQKRLKAAEAESKLKQVYIPNYNKPNPNQISVNNVKAGVVNGTGAPGQSPGAGRACESCYMSSLRILLDILEEIWWLENANPVRWREARTKPQ
repression of estradiol's ability to stimulate ERE transcription (ER [1]): effectively blocked | repression of GRE transcription stimulated by dexamethasone [2]: blocked the stimulation | repression of PRE transcription stimulated by progesterone [3]: blocked the stimulation | binding to ER in GST pull-down (ER [4]): interacted with the GST-ER but not with GST alone | expression of ER-target genes pS2, c-Myc and cathepsin-D [5]: significantly reduced expression | anchorage-independent growth in soft agar (ZR-75R or MCF-7 cells): significantly enhanced | tumorigenicity in nude mice (breast cancer cells): more tumorigenic

B2: full-length MTA1: 715 amino acid metastasis-associated protein, corepressor of nuclear Estrogen Receptor α (protein, UniProt Q13330 1-715, looked up)
chain: MAANMYRVGDYVYFENSSSNPYLIRRIEELNKTANGNVEAKVVCFYRRRDISSTLIALADKHATLSVCYKAGPGADNGEEGEIEEEMENPEMVDLPEKLKHQLRHRELFLSRQLESLPATHIRGKCSVTLLNETESLKSYLEREDFFFYSLVYDPQQKTLLADKGEIRVGNRYQADITDLLKEGEEDGRDQSRLETQVWEAHNPLTDKQIDQFLVVARSVGTFARALDCSSSVRQPSLHMSAAAASRDITLFHAMDTLHKNIYDISKAISALVPQGGPVLCRDEMEEWSASEANLFEEALEKYGKDFTDIQQDFLPWKSLTSIIEYYYMWKTTDRYVQQKRLKAAEAESKLKQVYIPNYNKPNPNQISVNNVKAGVVNGTGAPGQSPGAGRACESCYTTQSYQWYSWGPPNMQCRLCASCWTYWKKYGGLKMPTRLDGERPGPNRSNMSPHGLPARSSGSPKFAMKTRQAFYLHTTKLTRIARRLCREILRPWHAARHPYLPINSAAIKAECTARLPEASQSPLVLKQAVRKPLEAVLRYLETHPRPPKPDPVKSVSSVLSSLTPAKVAPVINNGSPTILGKRSYEQHNGVDGNMKKRLLMPSRGLANHGQARHMGPSRNLLLNGKSYPTKVRLIRGGSLPPVKRRRMNWIDAPDDVFYMATEETRKIRKLLSSSETKRAARRPYKPIALRQSQALPPRPPPPAPVNDEPIVIED
modifications: full-length
notes: 715 amino acid metastasis-associated protein, corepressor of nuclear Estrogen Receptor α
repression of estradiol's ability to stimulate ERE transcription (ER [1]): effectively blocked

B3: MTA1s-stop: MTA1s mutant made by adding a stop codon and deleting the entire 33 amino acids (protein)
chain: MAANMYRVGDYVYFENSSSNPYLIRRIEELNKTANGNVEAKVVCFYRRRDISSTLIALADKHATLSVCYKAGPGADNGEEGEIEEEMENPEMVDLPEKLKHQLRHRELFLSRQLESLPATHIRGKCSVTLLNETESLKSYLEREDFFFYSLVYDPQQKTLLADKGEIRVGNRYQADITDLLKEGEEDGRDQSRLETQVWEAHNPLTDKQIDQFLVVARSVGTFARALDCSSSVRQPSLHMSAAAASRDITLFHAMDTLHKNIYDISKAISALVPQGGPVLCRDEMEEWSASEANLFEEALEKYGKDFTDIQQDFLPWKSLTSIIEYYYMWKTTDRYVQQKRLKAAEAESKLKQVYIPNYNKPNPNQISVNNVKAGVVNGTGAPGQSPGAGRACESCY
repression of estradiol's ability to stimulate ERE transcription (ER [1]): did not result in a significant suppression

B4: MTA1s-del: MTA1s mutant made by deleting the LRILL motif (protein)
chain: MAANMYRVGDYVYFENSSSNPYLIRRIEELNKTANGNVEAKVVCFYRRRDISSTLIALADKHATLSVCYKAGPGADNGEEGEIEEEMENPEMVDLPEKLKHQLRHRELFLSRQLESLPATHIRGKCSVTLLNETESLKSYLEREDFFFYSLVYDPQQKTLLADKGEIRVGNRYQADITDLLKEGEEDGRDQSRLETQVWEAHNPLTDKQIDQFLVVARSVGTFARALDCSSSVRQPSLHMSAAAASRDITLFHAMDTLHKNIYDISKAISALVPQGGPVLCRDEMEEWSASEANLFEEALEKYGKDFTDIQQDFLPWKSLTSIIEYYYMWKTTDRYVQQKRLKAAEAESKLKQVYIPNYNKPNPNQISVNNVKAGVVNGTGAPGQSPGAGRACESCYMSSDILEEIWWLENANPVRWREARTKPQ
repression of estradiol's ability to stimulate ERE transcription (ER [1]): did not result in a significant suppression | cells with ERα present in the nucleus (ERα): more than 90%
